The results in this text go back to US20060183194A1 (Genentech, published 2006).

In assay [1] the target is T1, ErbB-4 receptor-Ig fusion (human, UniProt Q15303 26-651).
T1 construct: extracellular domain;range 224-C-terminus; also called ErbB-4-Ig; not shown: human IgG heavy chain constant region from His224 (hinge) on
T1 sequence: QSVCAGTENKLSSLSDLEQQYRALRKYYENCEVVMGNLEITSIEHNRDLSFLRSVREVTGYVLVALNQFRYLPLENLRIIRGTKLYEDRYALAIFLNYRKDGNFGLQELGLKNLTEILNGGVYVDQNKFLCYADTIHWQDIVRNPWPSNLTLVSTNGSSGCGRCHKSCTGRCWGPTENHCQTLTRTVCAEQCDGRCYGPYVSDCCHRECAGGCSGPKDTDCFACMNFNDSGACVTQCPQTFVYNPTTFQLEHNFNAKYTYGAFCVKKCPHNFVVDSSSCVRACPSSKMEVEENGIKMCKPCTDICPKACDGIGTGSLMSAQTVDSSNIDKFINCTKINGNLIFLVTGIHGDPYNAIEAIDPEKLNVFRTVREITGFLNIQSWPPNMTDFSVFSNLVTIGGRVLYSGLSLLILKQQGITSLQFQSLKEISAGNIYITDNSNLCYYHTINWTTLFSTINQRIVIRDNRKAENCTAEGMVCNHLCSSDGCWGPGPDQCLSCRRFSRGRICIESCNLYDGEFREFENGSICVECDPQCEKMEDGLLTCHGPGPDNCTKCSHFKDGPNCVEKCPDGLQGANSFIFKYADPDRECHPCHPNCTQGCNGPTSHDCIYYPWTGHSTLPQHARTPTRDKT
Briefly: phage ELISA; ratio to wild-type HRG-β1 177-244 phage. A general note: An ELISA detects its analyte on a solid surface through an enzyme-linked reagent.

In assay [2] the target is T2, ErbB-3 receptor-Ig fusion (human, UniProt P21860 20-643).
T2 construct: extracellular domain;range 224-C-terminus; also called ErbB-3-Ig; 3/3 homodimer; not shown: human IgG heavy chain constant region from His224 (hinge) on
Described as above.

Assay [3] has as its target T2, ErbB-3 receptor-Ig fusion. Briefly: phage ELISA; soluble ErbB-3-Ig as competitor.
For assay [4], the target named is T1, ErbB-4 receptor-Ig fusion. The experiment in a line: phage ELISA; soluble ErbB-4-Ig as competitor.
Assay [5] addresses T3, ErbB-2/3 receptor-Ig fusion (human, UniProt P04626 23-652; P21860 20-643).
T3 construct: extracellular domain;range 224-C-terminus; Co-expressed in HEK-293; also called ErbB-2/3-Ig; 2/3-heterodimer; not shown: human IgG heavy chain constant region from His224 (hinge) on
The experiment in a line: phage ELISA; soluble ErbB-2/3-Ig competes phage off plate-bound ErbB-2/3-Ig.

Assay [6] deals with T2, ErbB-3 receptor-Ig fusion. The experiment in a line: phage ELISA; soluble ErbB-3-Ig as competitor. The source holds these as a separate data set.
Protocol: (§1) Microtiter plates (Nunc Maxisorp™ 96-well plates, Inter Med, Denmark) for phage ELISA were prepared as follows. The wells were precoated overnight with 0.5 μg of rabbit anti-human IgG (Fc gamma fragment-specific) antibodies (Jackson Immunoresearch, West Grove, Pa.) in 100 μL 50 mM NaCO₃ (pH 9.6). The wells were blocked for 30 minutes (min) with 200 μL PBS containing 0.1% bovine serum albumin (BSA) and rinsed with wash buffer (PBS containing 0.05% Tween 20™). The wells were then coated with 0.1 μg ErbB-2/3-Ig in binding buffer (PBS, 0.1% BSA, 0.05% Tween 20™) for 1 h, and washed again.
(§2) Serial dilutions of soluble ErbB-2/3-Ig (competitor) and a concentration of phage predetermined to give 60% saturation (without competitor) were added to the wells in 100 μL binding buffer. Following incubation for 2 h at room temperature, plates were washed extensively and treated with a 1:900 dilution of anti-M13 horseradish peroxidase conjugate (Pharmacia, Piscataway, N.J.) for 20 min. The amount of phage binding was determined by assaying horseradish peroxidase activity using o-phenylenediamine dihydrochloride) substrate solution (Sigma Chemical Company, St. Louis, Mo.). EC₅₀ values were calculated as the concentration of soluble ErbB-2/3-Ig required to compete half of the phage off the plate. […]
Assay [7] deals with T1, ErbB-4 receptor-Ig fusion. Briefly: phage ELISA; soluble ErbB-4-Ig as competitor. The source holds these as a separate data set.
Protocol: as §1, §2
The target in assay [8] is T1, ErbB-4 receptor-Ig fusion. The experiment in a line: displacement of 125I-HRG from plate-bound ErbB-4-Ig.
Description: For the ErbB-4 binding assays, PBS containing 1% BSA was used as the blocking and binding buffers, and the wash buffer was PBS containing 0.05% Tween 20™.
Assay [9] has as its target T1, ErbB-4 receptor-Ig fusion. Briefly: phage ELISA; soluble ErbB-4-Ig as competitor. This is another data set of the same source.
Protocol: as §1
(§3) Serial dilutions of soluble ErbB-2/3-Ig (competitor) and a concentration of phage predetermined to give 60% saturation (without competitor) were added to the wells in 100 μL binding buffer. Following incubation for 2 h at room temperature, plates were washed extensively and treated with a 1:900 dilution of anti-M13 horseradish peroxidase conjugate (Pharmacia, Piscataway, N.J.) for 20 min. The amount of phage binding was determined by assaying horseradish peroxidase activity using o-phenylenediamine dihydrochloride) substrate solution (Sigma Chemical Company, St. Louis, Mo.). EC₅₀ values were calculated as the concentration of soluble ErbB-2/3-Ig required to compete half of the phage off the plate.
Assay [10] deals with T2, ErbB-3 receptor-Ig fusion. Briefly: phage ELISA; soluble ErbB-3-Ig as competitor. The source holds these as a separate data set.
Protocol: as §1, §3
The target of assay [11] is T2, ErbB-3 receptor-Ig fusion. Briefly: displacement of 125I-HRG from plate-bound ErbB-3-Ig. A general note: In a radioligand displacement assay an active substance lowers the binding of a labelled ligand.
In assay [12] the target is ErbB-2/3 heterodimers on MCF7 breast cancer carcinoma cells (UniProt P04626 23-1255; P21860 20-1342, limits assumed). Briefly: cell-based or functional assay.
In assay [13] the target is T3, ErbB-2/3 receptor-Ig fusion. The experiment in a line: told with the 125I-HRG displacement assay; reference ErbB-3-Ig homodimer.
For assay [14] the target is unchanged. The experiment in a line: displacement of 125I-HRG from plate-bound ErbB-2/3-Ig.

Ends that are not written are not given here.

T2 sequence (P21860 other isoform, or with tags, fused parts or gaps): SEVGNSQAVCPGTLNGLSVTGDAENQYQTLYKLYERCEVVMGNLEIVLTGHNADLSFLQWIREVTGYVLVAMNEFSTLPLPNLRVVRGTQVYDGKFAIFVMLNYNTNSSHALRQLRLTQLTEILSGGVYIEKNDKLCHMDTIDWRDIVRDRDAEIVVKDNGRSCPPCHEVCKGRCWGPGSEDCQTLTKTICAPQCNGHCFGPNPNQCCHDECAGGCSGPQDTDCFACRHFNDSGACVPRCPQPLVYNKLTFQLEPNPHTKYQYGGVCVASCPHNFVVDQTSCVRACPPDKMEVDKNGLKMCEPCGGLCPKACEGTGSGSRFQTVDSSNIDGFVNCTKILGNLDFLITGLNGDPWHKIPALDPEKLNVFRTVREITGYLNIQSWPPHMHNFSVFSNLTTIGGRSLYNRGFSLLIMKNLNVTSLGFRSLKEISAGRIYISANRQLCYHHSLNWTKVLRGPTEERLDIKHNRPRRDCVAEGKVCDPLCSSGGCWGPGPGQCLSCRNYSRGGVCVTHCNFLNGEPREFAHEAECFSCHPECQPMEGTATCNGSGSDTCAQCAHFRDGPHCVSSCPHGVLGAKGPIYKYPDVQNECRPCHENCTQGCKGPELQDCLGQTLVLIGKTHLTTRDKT

For the molecule “HRG-β1 177-244 H178L with 228-231 replaced by Met, on phage (from UniProt P69168 265-424) (ligand)”, the results for the EC50 Mut/WT in assay [1] and in assay [2] were 1.7 and 6.4, respectively.

Regarding “HRG-β1 177-244 F189A on phage (from UniProt P69168 265-424) (ligand)”, the concentration for a half-maximal effect (EC50) in [3] was determined as 892 nM; in assay [4], 106 nM.

In [3], “HRG-β1 177-244 F216A on phage (from UniProt P69168 265-424) (ligand)” gave an EC50 of 500 nM.

In the case of “HRG-β1 177-244 H178W with 228-231 replaced by Met, on phage (from UniProt P69168 265-424) (ligand)”, the EC50 Mut/WT in assay [1] stood at 1.7; in assay [2] it was 1.2.

B1: HRG5: HRG-β1 147-244 displayed on phage, fused to pIII 247 (ligand, phage M13)
chain: YVSSESPIRISVSTEGANTSSSTSTSTTGTSHLVKCAEKEKTFCVNGGECFMVKDLSNPSRYLCKCPNEFTGDRCQNYVMASFYKHLGIEFMEAEELYGGSGGGSGSGDFDYEKMANANKGAMTENADENALQSDAKGKLDSVATDYGAAIDGFIGDVSGLANGNGATGDFAGSNSQMAQVGDGDNSPLMNNFRQYLPSLPQSVECRPFVFSAGKPYEFSIDCDKINLFRGVFAFLLYVATFMYVFSTFANILRNKES
notes: range 247-C-terminus; Monovalent phage display; also called pHRG5-g3
Turning to B1, the EC50 in [5] was found to be 4.7 nM. This counts as single-digit nanomolar.

B2: HRG8: wild-type HRG-β1 EGF (HRG-β1 177-228) displayed on phage, linker to pIII 323 (ligand, phage M13)
chain: SHLVKCAEKEKTFCVNGGECFMVKDLSNPSRYLCKCPNEFTGDRCQNYVMASGGGSGGGSGGGSNSQMAQVGDGDNSPLMNNFRQYLPSLPQSVECRPFVFSAGKPYEFSIDCDKINLFRGVFAFLLYVATFMYVFSTFANILRNKES
notes: range 323-C-terminus; Monovalent phage display; also called pHRG8-g3; wild-type HRG-β1 EGF phage
For the molecule B2, the EC50 in [5] amounted to 11 nM; in [6] it was 135 nM; in [7], 163 nM.

B3: HRG6: HRG-β1 177-227 displayed on phage, fused to pIII 247 (ligand, phage M13)
chain: SHLVKCAEKEKTFCVNGGECFMVKDLSNPSRYLCKCPNEFTGDRCQNYVMAGGSGGGSGSGDFDYEKMANANKGAMTENADENALQSDAKGKLDSVATDYGAAIDGFIGDVSGLANGNGATGDFAGSNSQMAQVGDGDNSPLMNNFRQYLPSLPQSVECRPFVFSAGKPYEFSIDCDKINLFRGVFAFLLYVATFMYVFSTFANILRNKES
notes: range 247-C-terminus; also called pHRG6-g3
As to B3, the EC50 in [5] stood at 40 nM.

In turn, SHLVKCAEKEKTFCVNGGECFMVKDYGYLMCKCPNEFTGDRCQNYVMAS (ligand, also: three disulfide bonds, pairing not given here) [soluble HRG-β1 EGF variant E2] displayed an EC50 in assay [8] of 2.4 nM.

Consider SHLVKCAEKEKTFCVNGGECYRVKTYGYLMCKCPNEFTGDRCQNYVIAS (ligand, also: three disulfide bonds, pairing not given here, also called D4+E2+M50I) [soluble HRG-β1 EGF combination variant HRG58], for which a half-maximal response in assay [8] (EC50) required 0.3 nM.

B4: HRG11: HRG-β1 177-230 displayed on phage, GGGSGGG linker to pIII 247 (ligand, phage M13)
chain: SHLVKCAEKEKTFCVNGGECFMVKDLSNPSRYLCKCPNEFTGDRCQNYVMASFYGGGSGGGGGSGGGSGSGDFDYEKMANANKGAMTENADENALQSDAKGKLDSVATDYGAAIDGFIGDVSGLANGNGATGDFAGSNSQMAQVGDGDNSPLMNNFRQYLPSLPQSVECRPFVFSAGKPYEFSIDCDKINLFRGVFAFLLYVATFMYVFSTFANILRNKES
notes: range 247-C-terminus; Monovalent phage display; also called pHRG11-g3
In [5], B4 displayed an EC50 of 19 nM.

B5: HRG2: HRG-β1 177-244 displayed on phage, fused to pIII 247 (ligand, phage M13)
chain: SHLVKCAEKEKTFCVNGGECFMVKDLSNPSRYLCKCPNEFTGDRCQNYVMASFYKHLGIEFMEAEELYGGSGGGSGSGDFDYEKMANANKGAMTENADENALQSDAKGKLDSVATDYGAAIDGFIGDVSGLANGNGATGDFAGSNSQMAQVGDGDNSPLMNNFRQYLPSLPQSVECRPFVFSAGKPYEFSIDCDKINLFRGVFAFLLYVATFMYVFSTFANILRNKES
notes: range 247-C-terminus; Monovalent phage display; also called pHRG2-g3
As to B5, the results for the EC50 in assay [5], in assay [9] and in assay [10] were 6 nM, 19 nM and 13 nM, respectively.

B6: soluble wild-type HRG-β1 EGF (HRG8, HRG-β1 177-228) (ligand)
chain: SHLVKCAEKEKTFCVNGGECFMVKDLSNPSRYLCKCPNEFTGDRCQNYVMAS
notes: also called HRG8 (WT)
As for B6, the EC50 in assay [11] amounted to 2.3 nM; in assay [14], 0.033 nM; in [8], 1.5 nM. Further, the “KIRA EC50 (nM): tyrosine phosphorylation of the ErbB-2 receptor on MCF7 cells” value in [12] is 0.212 nM. For the same molecule, in assay [13], the “fold higher affinity than for the 3/3 homodimer” value was around 100 fold.

B7: soluble HRG-β1 EGF variant F1 (ligand)
chain: SHLVKCAEKEKTFCVNGGECFKVKDLSNPSRYLCKCPNEFTGDRCQNYVIAS
modifications: also: three disulfide bonds, pairing not given here
Consider B7, for which the EC50 in assay [11] worked out at 0.6 nM; in assay [8], 0.26 nM.

B8: soluble HRG-β1 EGF variant A3 (ligand)
chain: WELVPCAEKEKTFCVNGGECFMVKDLSNPSRYLCKCPNEFTGDRCQNYVMAS
modifications: also: three disulfide bonds, pairing not given here
For B8, the EC50 in assay [11] worked out at 4.3 nM; in assay [8] it was 2.1 nM.

B9: HRG-β1 177-244 P205A on phage (ligand)
chain: SHLVKCAEKEKTFCVNGGECFMVKDLSNASRYLCKCPNEFTGDRCQNYVMASFYKHLGIEFMEAEELY
notes: not shown: M13 pIII fragment from residue 247 to the C-terminus (phage display carrier) and any cloning-site junction
As for B9, the values for the EC50 in [9] and in assay [10] were 8 nM and 22 nM, respectively.

B10: HRG-β1 177-244 Y224A on phage (ligand)
chain: SHLVKCAEKEKTFCVNGGECFMVKDLSNPSRYLCKCPNEFTGDRCQNAVMASFYKHLGIEFMEAEELY
notes: not shown: M13 pIII C-terminal fragment (from pIII residue 247), the phage display partner
Regarding B10, the values for the EC50 in assay [9] and in assay [10] were 51 nM and 865 nM, respectively.

B11: HRG-β1 177-244 V199A on phage (ligand)
chain: SHLVKCAEKEKTFCVNGGECFMAKDLSNPSRYLCKCPNEFTGDRCQNYVMASFYKHLGIEFMEAEELY
notes: as for B9
As to B11, the figures for the EC50 in assay [9] and in assay [10] were 47 nM and 27 nM, respectively.

B12: HRG-β1 177-244 S177A on phage (ligand)
chain: AHLVKCAEKEKTFCVNGGECFMVKDLSNPSRYLCKCPNEFTGDRCQNYVMASFYKHLGIEFMEAEELY
notes: as for B10
In the case of B12, the EC50 in assay [9] was determined as 83 nM; in assay [10], 67 nM.

In assay [8], SHLVKCGEEREGFCVNGGECYRVKTYGYLMCKCPNEFTGDRCQHYVIAS (ligand, also: three disulfide bonds, pairing not given here, also called B3+D4+E2+I2) [soluble HRG-β1 EGF combination variant HRG73] returned an EC50 of 0.31 nM. This counts as sub-nanomolar.

B13: HRG4: HRG-β1 147-227 displayed on phage, fused to pIII 247 (ligand, phage M13)
chain: YVSSESPIRISVSTEGANTSSSTSTSTTGTSHLVKCAEKEKTFCVNGGECFMVKDLSNPSRYLCKCPNEFTGDRCQNYVMAGGSGGGSGSGDFDYEKMANANKGAMTENADENALQSDAKGKLDSVATDYGAAIDGFIGDVSGLANGNGATGDFAGSNSQMAQVGDGDNSPLMNNFRQYLPSLPQSVECRPFVFSAGKPYEFSIDCDKINLFRGVFAFLLYVATFMYVFSTFANILRNKES
notes: range 247-C-terminus; Monovalent phage display; also called pHRG4-g3
For B13, the response in [5] was half-maximal at 38 nM (EC50).

B14: HRG7: HRG-β1 177-228 displayed on phage, fused to pIII 247 (ligand, phage M13)
chain: SHLVKCAEKEKTFCVNGGECFMVKDLSNPSRYLCKCPNEFTGDRCQNYVMASGGSGGGSGSGDFDYEKMANANKGAMTENADENALQSDAKGKLDSVATDYGAAIDGFIGDVSGLANGNGATGDFAGSNSQMAQVGDGDNSPLMNNFRQYLPSLPQSVECRPFVFSAGKPYEFSIDCDKINLFRGVFAFLLYVATFMYVFSTFANILRNKES
notes: range 247-C-terminus
In assay [5], B14 yielded an EC50 of 42 nM.

The term EC50 denotes the concentration giving half of the maximal effect.
